Measurements published in patent US20240390418A1 (MINERVA BIOTECHNOLOGIES, published 2024).
Residue numbers refer to the chain shown, from its start.

B1: N-10 peptide (peptide)
peptide: QFNQYKTEAASRYNLTISDVSVSDVPFPFSAQSGA
notes: also called PSMGFR N-10; PSMGFR minus 10 amino acids from the N-terminus
B2: monoclonal antibody 25E6 (antibody, V domains shown)
VH: EVQLVESGGDLVKPGGSLKLSCAASGFTFSSYGMSWVRQTPDKRLEWVATISNGGRHTFYPDSVKGRFTISRDNAKNTLYLQMSSLKSEDTAMYLCVRQTGTEGWFAYWGQGTLVTVSA
VL: not shown
notes: Raised against PSMGFR; also called MN25E6; anti-PSMGFR antibody 25E6
B3: monoclonal antibody 45C11 (antibody, V domains shown)
VH: EVQLQQSGADLVKPGASVKLSCTASGFNIKDTFMHWVKQRPEQGLEWIGRIDPANGNTKYDPKFQGKATITADTSSNTAYLQLSSLTSEDTAVYYCAKPYGNYGYYYALDYWGQGTSVTVSS
VL: DVQITQSPSYLAASPGETITINCRASKSISKYLAWYQEKPGKTNKLLIYSGSTLQSGIPSRFSGSGSGTDFTLTISSLEPEDFAMYYCQQHNEFPWTFGGGTKLEIK
notes: Raised against the N+20/C-27 peptide; also called N+20/C-27 antibody 45C11
B4: mouse monoclonal antibody MNC2 (antibody, V domains shown)
VH: EVQLEESGGGLVKPGGSLKLSCAASGFTFSGYAMSWVRQTPEKRLEWVATISSGGTYIYYPDSVKGRFTISRDNAKNTLYLQMSSLRSEDTAMYYCARLGGDNYYEYFDVWGAGTTVTVSS
VL: DIVITQSTASLGVSLGQRATISCRASKSVSTSGYSYMHWYQQRPGQPPKLLIYLASNLESGVPARFSGSGSGTDFTLNIHPVEEEDAATYYCQHSRELPFTFGGGTKLEIKR
notes: Mouse monoclonal raised against the PSMGFR peptide; also called Min-C2; MNC2-scFv (label in some tissue legends)
B5: monoclonal antibody H11 (antibody, V domains shown)
VH: EVVLVESGGGLVEPGGSLKLSCVASGFAFSTFAMSWIRQTPEKRLEWVAAISNGGGYTYYPDTLKGRFTISRDNAKNTLYLQMSSLRSEDTAVYYCARRYYDLYFDLWGQGTSLIVSS
VL: DILMTQTPLSLPVSLGDQASISCRSSQNIVHSNGNTYLEWYLQKPGQSPKLLIYKVSNRFSGVPDRFSGSGSGTDFTLKISRVEAEDLGVYYCFQDSHVPLTFGAGTRLELK
notes: Raised against PSMGFR
B6: monoclonal antibody 5C6F3 (antibody, V domains shown)
VH: EVMLVESGGGLVKPGGSLKLSCAASGFTFSTYAMSWVRQTPEKRLEWVAAISNGGGYTYYPDSLKGRFTISRDNAKNTLYLQMSSLRSEDTATYYCARRYYDHYFDYWGQGTALTVSS
VL: B5 VL with I2V, N28T, R108K
notes: Raised against PSMGFR; also called MN5C6F3; anti-PSMGFR antibody 5C6F3

Legend:
NME7AB = target: T1, NME7AB (Homo sapiens (Human), UniProt Q9Y5B8 92-376); assay: ELISA, peptide on plate (FIG. 2A-2D)
T1 construct: NME7A in the text appears to be NME7AB; also called NM23-H7; NME7A
T1 sequence: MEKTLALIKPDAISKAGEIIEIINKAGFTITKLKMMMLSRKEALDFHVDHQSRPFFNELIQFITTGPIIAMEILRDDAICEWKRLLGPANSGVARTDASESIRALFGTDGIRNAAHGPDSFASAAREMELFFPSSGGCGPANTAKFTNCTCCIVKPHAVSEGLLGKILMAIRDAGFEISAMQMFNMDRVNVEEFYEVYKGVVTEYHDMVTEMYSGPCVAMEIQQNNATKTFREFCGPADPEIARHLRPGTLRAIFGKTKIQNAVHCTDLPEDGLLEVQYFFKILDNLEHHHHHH

N+9/C-9 peptide = target: T2, N+9/C-9 peptide; assay: ELISA, peptide on plate (FIG. 64)
T2 peptide: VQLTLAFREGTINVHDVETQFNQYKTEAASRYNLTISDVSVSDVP

PSMGFR peptide [1] = target: T3, PSMGFR peptide; assay: peptide ELISA, told in tissue legend
T3 construct: also called MUC1* peptide
T3 peptide: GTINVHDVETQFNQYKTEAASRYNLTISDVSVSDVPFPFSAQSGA

N-10 peptide [2] = target: B1; assay: peptide ELISA, told in tissue legend
[3] = target: T4, MUC1* expressed on HCT-116 cells transfected with MUC1* (extra cellular domain is just the PSMGFR sequence) (Homo sapiens (Human), UniProt P15941 1110-1255); assay: denaturing Western blot of cell lysates (FIG. 72)
T4 construct: In Western blot rows the same protein stood denatured in cell lysate; also called HCT-MUC1*; HCT-FLR
T4 sequence: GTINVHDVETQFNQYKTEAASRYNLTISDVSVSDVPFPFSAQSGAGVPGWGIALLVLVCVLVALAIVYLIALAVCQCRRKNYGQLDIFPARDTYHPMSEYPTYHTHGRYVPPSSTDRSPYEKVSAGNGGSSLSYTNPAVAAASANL
Protocol: Antibodies were tested to determine whether they recognize a linear or a conformational epitope. Only antibodies that recognize a linear epitope work in Western blots when using denaturing gels. […] The antibodies tested for comparison are MNC2 and MNE6, which were known to only recognize a conformational epitope, SDIX which is a polyclonal antibody raised against PSMGFR and VU4H5, which is a commercially available monoclonal antibody that recognizes the tandem repeats of full-length MUC1 (FIG. 71A-71D). […] The SDIX polyclonal antibody recognizes HCT-MUC1* but not full-length MUC1 and VU4H5 only recognizes full-length MUC1. These same antibodies were also tested for their ability to work in Western blots of two breast cancer cell lines 1500, aka Zr-75-1, and T47D cells and show the same binding pattern (FIG. 71E-71H).
(§1) Antibodies that were raised against the PSMGFR peptide were tested the same way in Western blots (FIG. 72A-72P). […] Antibodies that were raised against the N+20/C-27 peptide were tested the same way in Western blots (FIG. 73A-73J). […] Antibodies 1E4 and 45C11 may recognize a conformational epitope. Antibodies that were raised against the N+9/C-9 peptide were tested the same way in Western blots (FIG. 74A-74H). […] These antibodies may recognize a conformational epitope.

N-10 peptide [4] = target: B1; assay: peptide ELISA
PSMGFR peptide [5] = target: T3, PSMGFR peptide; assay: ELISA, peptide on plate (FIG. 65)
PSMGFR peptide [6] = target: T3, PSMGFR peptide; assay: ELISA, peptide on plate (FIG. 2B)
Protocol: FIGS. 2A-2I show results of ELISA assays. MUC1* peptides PSMGFR, PSMGFR minus 10 amino acids from the N-terminus aka N-10, or PSMGFR minus 10 amino acids from the C-terminus, aka C-10 are immobilized on the plate and the following are assayed for binding: NME7-AB (FIG. 2A), MNC2 monoclonal antibody (FIG. 2B), MNE6 monoclonal antibody (FIG. 2C), or dimeric NME1 (FIG. 2D). […] MUC1* peptides PSMGFR minus 10 amino acids from the N-terminus aka N-10, or PSMGFR minus 10 amino acids from the C-terminus, aka C-10, are immobilized on the plate and the following are assayed for binding: MNC3 (FIG. 2E) and MNC8 (FIG. 2F).

N+20/C-27 peptide = target: T5, N+20/C-27 peptide; assay: ELISA, peptide on plate (FIG. 63)
T5 peptide: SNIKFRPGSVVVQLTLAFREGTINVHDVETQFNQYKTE
Protocol: ELISA assays were performed to determine if, in addition to recognizing their immunizing peptide, they recognized PSMGFR, N-10 or C-10. In addition, they were tested for their ability to bind to N+20/C-27, N+9/C-9. We first did the ELISA assay on our set of reference antibodies, MNC2, MNE6, which we know are cancer-specific plus MNC3, which we know recognizes stem cells and progenitor cells (FIG. 63A-63B). None of the reference antibodies bound to the N+20/C-27 peptide. MNC2 and MNE6 cannot bind to PSMGFR peptides with 27, 10 or 9 C-terminal deletions, however, MNC3 binds to C-10 and to N+9/C-9 peptides.

C-10 peptide [7] = target: T6, C-10 peptide; assay: ELISA, peptide on plate (FIG. 64)
T6 construct: also called PSMGFR C-10; PSMGFR minus 10 amino acids from the C-terminus
T6 peptide: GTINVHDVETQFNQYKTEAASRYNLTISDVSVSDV

N-10 peptide [8] = target: B1; assay: ELISA, peptide on plate (FIG. 2B-2C)
[9] = target: T4, MUC1* expressed on HCT-116 cells …; assay: flow cytometry, HCT-116 cells transfected with MUC1* (FIG. 35B)
C-10 peptide [10] = target: T6, C-10 peptide; assay: ELISA, peptide on plate (FIG. 201)
PSMGFR peptide [11] = target: T3, PSMGFR peptide; assay: ELISA, peptide on plate (FIG. 201A)
Protocol: (§2) FIG. 201A-201C show graphs of ELISA assays to determine the binding of another set of antibodies generated by immunizing animals with the PSMGFR peptide. […] F3, B12, B2, B7, B9, 8C7F3 and H11 all bound to the PSMGFR peptide and to the N-10 peptide.
(§3) This same ELISA assay was performed on the antibodies of the invention (FIGS. 64-66 and FIG. 201). Note that only 20A10 exactly matches the binding profile of MNC2 and MNE6. 25E6, 28F9 and 18G12 are all able to bind to the N-10 peptide. 18B4 is the only antibody raised against the PSMGFR peptide that requires the 10 most N-terminal amino acids of the peptide. The color of the bars for each antibody in the ELISA graph are color coded to match the deductive cognate sequence, or a portion thereof, of that antibody. In addition, another set of antibodies was assayed by ELISA (FIG. 201). Of this set, B12, B2, B7, B9, 8C7F3, and H11 bound to the PSMGFR peptide, bound to the N-10 peptide, but not to the C-10 peptide (FIG. 201). Although these antibodies were raised against the N+20/C-27 peptide, all but one, 45C11, still bind to the PSMGFR peptide, albeit at the N-terminal portion of PSMGFR.

N-10 peptide [12] = target: B1; assay: ELISA, peptide on plate (FIG. 201B)
Protocol: as §2, §3

PSMGFR peptide [13] = target: T3, PSMGFR peptide; assay: peptide ELISA
[14] = target: T4, MUC1* expressed on HCT-116 cells …; assay: denaturing Western blot of cell lysates, longer exposure (FIG. 72G, 72H, 72O, 72P)
Excerpt: All these antibodies were raised against the PSMGFR peptide and bind to the PSMGFR peptide. […] FIG. 72A and FIG. 72I show 20A10. FIG. 72B and FIG. 72J show 25E6. FIG. 72C and FIG. 72K show 18B4. FIG. 72D and FIG. 72L show 18G12. FIG. 72E and FIG. 72M show 28F9. FIG. 72F and FIG. 72N show 3C2B1. FIG. 72G and FIG. 72O show 5C6F3. FIG. 72H and FIG. 72P show 5C6F3 wherein the blot has been exposed for a longer time period to render more visible the MUC1* specific bands.
as §1

B1: binds (NME7AB).

B2: binds (N+9/C-9 peptide); binds (PSMGFR peptide [1]); binds (N-10 peptide [2]). B2: binds [3].

B3: no binding (N-10 peptide [4]); no binding (PSMGFR peptide [5]).

B4: binds (PSMGFR peptide [6]); no binding (N+20/C-27 peptide); no binding (C-10 peptide [7]). B4: no binding (N+9/C-9 peptide); binds (N-10 peptide [8]); binds [9].

B5: no binding (C-10 peptide [10]); binds (PSMGFR peptide [11]); binds (N-10 peptide [12]).

B6: binds (PSMGFR peptide [13]); binds (N-10 peptide [4]); binds [14].
